Results: US20070172906A1 (BIOSITE, published 2007)

Biological target: T1, Human latent protein C (Enzyme Research Labs, Catalog # HPC 1001) (human, UniProt P04070 43-197; P04070 200-461)
T1 construct: Bought protein; It was biotinylated for panning and ELISA
Assay: method not stated

T1 sequence (P04070 43-197, form in doubt, chain 1 of 2): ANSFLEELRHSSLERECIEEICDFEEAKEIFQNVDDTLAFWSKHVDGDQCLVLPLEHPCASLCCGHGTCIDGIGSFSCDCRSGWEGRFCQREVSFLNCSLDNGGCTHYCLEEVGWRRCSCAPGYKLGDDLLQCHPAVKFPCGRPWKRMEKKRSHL
T1 sequence (P04070 200-461, form in doubt, chain 2 of 2): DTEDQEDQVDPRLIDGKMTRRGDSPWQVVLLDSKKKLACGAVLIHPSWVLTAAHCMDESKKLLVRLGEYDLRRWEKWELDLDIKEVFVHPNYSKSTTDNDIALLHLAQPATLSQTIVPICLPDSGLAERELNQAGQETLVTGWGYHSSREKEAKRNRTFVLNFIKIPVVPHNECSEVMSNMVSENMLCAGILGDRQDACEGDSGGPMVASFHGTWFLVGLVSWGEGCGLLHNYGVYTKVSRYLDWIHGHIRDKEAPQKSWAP

Binder | Ka
Z1XM01701 (antibody, V domains shown, It was subcloned into a pBR322 expression vector, expressed, purified and biotinylated; also called SE61z1zm-01071) VH: EVMLVESGGGLVKPGGSLKLSCAASGFTFSNYAMSWVRQTPAKRLEWVATISGGGGNTYYPDSVKGRFTISRDNAKNTLYLQMSSLRSEDTALYYCARHPNRFETAVDYWGQGTSVIVSS VL: QIVLTQSPAILSASPGEKVTMTCRASSSVSSVHWYQQKPGSSPKPWIYATSNLASGVPTRFSGGGSGTSYSLTISRVEAEDAATYSCQQWSSDPPTFGGGTKLEIK | ≥ 1e+10 M⁻¹
Z3XM01011 (antibody, V domains shown, Mouse monoclonal antibody from the same Fab phage library after one more round of panning, subcloned into a pBR322 expression vector) VH: EVQLQQSGPGLVEPSQSLSITCTVSGFSLRSYGVHWVRQSPRKGLEWLGGIWSGGRIDYNAAYISRLTINKDNSKSQVFFKMNSLQADDTAIYYCVRKAIDLGDYYGMDYWGQGTSVTVSS VL: DIVMTQFSQILSTSVGDRVSITCKASQDVGTAVAWYQQKPGQSPKLLIYWASTRHTGVPGRFTGSGSGTDFTLTIISVQSEDLADYFCQQYSSYPTFGGGTKLEIK | ≥ 1e+10 M⁻¹
